Data published in patent US20220002426A1 (BIOINVENT INTERNATIONAL, published 2022).
Numbering of substitutions follows the chain as printed. Names may count otherwise. One block for each binder: values may come before it.

Legend:
[1] = target: T1, recombinant human TNFR2-Fc protein (Sino Biological) (human, UniProt P20333 23-257, limits assumed); test: ELISA, coated TNFR2-Fc
T1 construct: bought; also called human TNFR2 protein; not shown: Fc part of the bought fusion protein; not described
T1 sequence (looked up): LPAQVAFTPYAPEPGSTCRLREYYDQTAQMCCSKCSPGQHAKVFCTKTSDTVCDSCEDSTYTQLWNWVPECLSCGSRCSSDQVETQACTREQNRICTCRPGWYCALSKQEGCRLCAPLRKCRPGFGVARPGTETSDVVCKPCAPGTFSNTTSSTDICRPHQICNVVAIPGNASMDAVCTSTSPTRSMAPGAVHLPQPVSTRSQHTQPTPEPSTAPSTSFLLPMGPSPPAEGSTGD
Procedure: 96-well plates (Lumitrac 600 LIA plate, Greiner) were coated overnight at 4° C. with recombinant human or mouse TNFR2-Fc protein (Sino Biological) at 1 pmol/well. After washing, titrated doses of anti-TNFR2 mAbs from 20 μg/ml to 0.1 ng/ml (133 nM to 1 pM) were allowed to bind for 1 hour. Plates were then washed again, and bound antibodies were detected with an anti-human-F(ab)-HRP secondary antibody (Jackson ImmunoResearch) diluted in 50 ng/ml. Super Signal ELISA Pico (Thermo Scientific) was used as substrate and the plates were analyzed using Tecan Ultra Microplate reader.

[2] = target: T2, wild type, full length human TNFR2 (on cells) (human, UniProt P20333 23-461); test: FACS, activated CD4+ T cells
T2 construct: whole, on cells; also called hTNFR2; TNFRII
T2 sequence (looked up): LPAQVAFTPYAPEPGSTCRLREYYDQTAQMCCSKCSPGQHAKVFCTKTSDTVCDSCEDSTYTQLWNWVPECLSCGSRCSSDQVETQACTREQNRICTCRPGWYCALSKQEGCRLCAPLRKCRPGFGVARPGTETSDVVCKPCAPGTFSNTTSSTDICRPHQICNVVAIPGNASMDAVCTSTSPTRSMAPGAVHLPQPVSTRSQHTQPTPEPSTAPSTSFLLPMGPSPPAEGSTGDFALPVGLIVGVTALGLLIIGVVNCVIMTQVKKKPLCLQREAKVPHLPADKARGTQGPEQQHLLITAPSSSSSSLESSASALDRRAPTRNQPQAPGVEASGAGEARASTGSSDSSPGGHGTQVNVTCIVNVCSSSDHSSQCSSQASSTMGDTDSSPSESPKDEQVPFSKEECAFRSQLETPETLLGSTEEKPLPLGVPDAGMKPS
Procedure: The ability and affinity of TNFR2 n-CoDeR® antibodies to bind TNFR2 expressed on cells were obtained using in vitro activated CD4⁺ T cells. Human CD4⁺ T cells were stimulated with 50 ng/ml rhIL-2 (R&D systems) and Dynabeads® T-Activator CD3/CD28 for T-Cell Expansion and Activation (Gibco) 2-3 days at 37 degrees. […] Cells were then incubated with an APC conjugated a-human IgG secondary ab (Jackson) followed by analysis by flow cytometry (FACSVerse, BD).

[3] = target: T3, hTNFRII (Sinobioologicals Cat nr10414-H08H) (human, UniProt P20333 23-257); test: blocking ELISA, coated hTNFRII, competitor hTNF-α-bio 5 nM
T3 construct: bought; also called immobilized TNFR2
T3 sequence (looked up): T1 sequence (looked up)
Procedure: 96-well plates were coated with hTNFRII (Sinobioologicals Cat nr10414-H08H) or mTNFRII (Sinobioologicals Cat No. 50128 M08H) at 2.5 pmol/well in ELISA coating buffer (0.1 M sodium carbonate pH 9.5) and incubated overnight at 4° C. After washing in ELISA wash buffer (PBS with 0.05% Tween20), the plates were incubated under slow agitation for 1 h in room temperature with n-CoDeR® mAbs at 10 μg/ml (one-dose ELISA) or 33 nM and subsequent 1:2 dilutions (titration ELISA) in block buffer containing 0.45% fish gelatin. […] Thereafter, plates were washed. For the human ELISAs, Streptavidin-HRP (Jackson Cat No. 016-030-084) diluted 1:2000 in block buffer were added and again incubated for 1 h at room temperature followed by washes first in ELISA buffer and then in Tris buffer (pH 9.8). The substrate (Super Signal ELISA Pico from Thermo Scientific Cat. No. 37069) were thereafter diluted according to the manufacturers instruction, added to the wells and incubated in darkness for 10 min before reading in a Tecan Ultra. […] After washing, anti-Rabbit-HRP diluted 1:10 000 in block buffer was added and again incubated for 1 h at room temperature. Substrate adding and reading were performed as above.

[4] = target: T4, wild type, full length murine TNFR2 (on cells) (mouse, UniProt P25119 23-474); test: FACS, transfected HEK293 cells
T4 construct: whole, on cells; also called mTNFR2; mouse TNFR2
T4 sequence (looked up): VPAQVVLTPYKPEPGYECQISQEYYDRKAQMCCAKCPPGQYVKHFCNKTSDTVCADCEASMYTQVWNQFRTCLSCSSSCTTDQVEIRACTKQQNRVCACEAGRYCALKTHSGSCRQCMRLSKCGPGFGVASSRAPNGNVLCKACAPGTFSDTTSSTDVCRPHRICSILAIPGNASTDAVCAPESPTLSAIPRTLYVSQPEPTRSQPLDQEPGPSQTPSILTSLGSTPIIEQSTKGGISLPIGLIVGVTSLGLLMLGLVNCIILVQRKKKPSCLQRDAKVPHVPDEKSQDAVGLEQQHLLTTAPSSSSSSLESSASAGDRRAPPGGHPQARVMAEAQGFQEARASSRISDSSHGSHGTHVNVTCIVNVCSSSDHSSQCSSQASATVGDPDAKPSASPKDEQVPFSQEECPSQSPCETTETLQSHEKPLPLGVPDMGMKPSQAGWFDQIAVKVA

B1: 001-H09 (antibody, V domains shown)
VH: EVQLLESGGGLVQPGGSLRLSCAASGFTFSSYAMSWVRQAPGKGLEWVATISYHGSDKDYADSVKGRFTISRDNSKNTLYLQMNSLRAEDTAVYYCARDANYHSSGYYYDVFDIWGQGTLVTVSS
VL: not shown
notes: IgG
EC50 [1]: 0.3 nM
EC50 [2]: 16 nM
EC50 [3]: 1.4 nM

B2: 001-C08 (antibody, V domains shown)
VH: EVQLLESGGGLVQPGGSLRLSCAASGFTFSNAWMSWVRQAPGKGLEWVSGISSSGSSAYYADSVKGRFTISRDNSKNTLYLQMNSLRAEDTAVYYCARHYYYHIAGYYYDTFDIWGQGTLVTVSS
VL: not shown
notes: IgG; also called 1-008
EC50 [1]: 0.082 nM
EC50 [2]: 2.6 nM
EC50 [3]: 1.1 nM

B4: 005-B02 (antibody, V domains shown)
VH: EVQLLESGGGLVQPGGSLRLSCAASGFTFSDYYMSWIRQAPGKGLEWVALIWYDGGNEYYADSVKGRFTISRDNSKNTLYLQMNSLRAEDTAVYYCVRETGNYGMDVWGQGTLVTVSS
VL: QSVLTQPPSASGTPGQRVTISCTGSSSNIGAGYDVHWYQQLPGTAPKLLIYRNNQRPSGVPDRFSGSKSGTSASLAISGLRSEDEADYYCATWDDRVNGPVFGGGTKLTVLG
notes: IgG
EC50 [1]: 0.15 nM
EC50 [2]: 0.8 nM
EC50 [3]: 0.2 nM

B5: 001-B09 (antibody, V domains shown)
VH: EVQLLESGGGLVQPGGSLRLSCAASGFTFSRHAMNWVRQAPGKGLEWVSSISTGSSYIDYADSVKGRFTISRDNSKNTLYLQMNSLRAEDTAVYYCAREKGHYYYGMDVWGQGTLVTVSS
VL: QSVLTQPPSASGTPGQRVTISCTGSSSNIGAGYDVHWYQQLPGTAPKLLIYGNSYRPSGVPDRFSGSKSGTSASLAISGLRSEDEADYYCQSYDTSLSAYVVFGGGTKLTVLG
notes: IgG
EC50 [1]: 0.18 nM
EC50 [2]: 29 nM

B6: 001-C07 (antibody, V domains shown)
VH: EVQLLESGGGLVQPGGSLRLSCAASGFTFSSYEMNWVRQAPGKGLEWVSTITGGGSIYDANSVQGRFTISRDNSKNTLYLQMNSLRAEDTAVYYCARDSTYHSSGYYYDVFDIWGQGTLVTVSS
VL: not shown
notes: IgG
EC50 [1]: 0.26 nM
EC50 [2]: 36 nM
EC50 [3]: 0.8 nM

B7: 005-F10 (antibody, V domains shown)
VH: EVQLLESGGGLVQPGGSLRLSCAASGFTFSDYYMTWIRQAPGKGLEWVSGISGSGGYIHYADSVKGRFTISRDNSKNTLYLQMNSLRAEDTAVYYCAREGLLPDAFDIWGQGTLVTVSS
VL: not shown
notes: IgG
EC50 [1]: 0.22 nM
EC50 [2]: 32 nM
EC50 [3]: 0.03 nM

B8: 004-E08 (antibody, V domains shown)
VH: EVQLLESGGGLVQPGGSLRLSCAASGFTFSRYWMHWVRQVPGKGLEWVSGISDSGVVTYYADSVKGRFTISRDNSKNTLYLQMNSLRAEDTAVYYCARAQSVAFDIWGQGTLVTVSS
VL: QSVLTQPPSASGTPGQRVTISCSGSSSNIGAGHDVHWYQQLPGTAPKLLIYYDDLLPSGVPDRFSGSKSGTSASLAISGLRSEDEADYYCAAWDDSLSGWVFGGGTKLTVLG
notes: IgG
EC50 [1]: 0.38 nM
EC50 [2]: 2.3 nM

B12: 001-B05 (antibody, V domains shown)
VH: EVQLLESGGGLVQPGGSLRLSCAASGFTFSNAWMSWVRQAPGKGLEWVSSISSASGYIYYGDSVKGRFTISRDNSKNTLYLQMNNLRAEDTAVYYCARGTLYGDFDEFWGQGTLVTVSS
VL: QSVLTQPPSASGTPGQRVTISCSGSSSNIGNNAVNWYQQLPGTAPKLLIYGNTNRPSGVPDRFSGSKSGTSASLAISGLRSEDEADYYCQSYDSSLSGYVVFGGGTKLTVLG
notes: IgG
EC50 [1]: 0.23 nM
EC50 [2]: 1.5 nM

B13: 001-C05 (antibody, V domains shown)
VH: EVQLLESGGGLVQPGGSLRLSCAASGFTFSSNEMSWIRQAPGKGLEWVSVIYSGGSTYYADSVKGRFTISRDNSKNTLYLQMNSLRAEDTAVYYCARREGWLVPFDYWGQGTLVTVSS
VL: B12 VL with N31S, A33T, T53I, N54I, Y92F, S94T, S95T, Y99S, V100I
notes: IgG
EC50 [1]: 0.38 nM
EC50 [2]: 12 nM

B14: 001-A09 (antibody, V domains shown)
VH: EVQLLESGGGLVQPGGSLRLSCAASGFTFSSNYMSWVRQAPGKGLEWVSVISGSGGSTYYADSVKGRFTISRDNSKNTLYLQMNSLRAEDTAVYYCARDRGWFDPWGQGTLVTVSS
VL: QSVLTQPPSASGTPGQRVTISCSGSRSNIDNSYVSWYQQLPGTAPKLLIYRNNQRPSGVPDRFSGSKSGTSASLAISGLRSEDEADYYCATWDDSLSGPVFGGGTKLTVLG
notes: IgG
EC50 [1]: 4.4 nM
EC50 [2]: 48 nM

Next, values leading:

EC50 [1]: 0.37 nM
EC50 [2]: 3.9 nM
EC50 [3]: 1.4 nM
B3: 001-D01 (antibody, V domains shown)
VH: not shown
VL: QSVLTQPPSASGTPGQRVTISCSGSSSNIGSNTVNWYQQLPGTAPKLLIYGNSNRPSGVPDRFSGSKSGTSASLAISGLRSEDEADYYCQSYDSSLSASVFGGGTKLTVLG
notes: IgG

EC50 [1]: 0.2 nM
EC50 [2]: 4.1 nM
EC50 [3]: 0.3 nM
B9: 001-E06 (antibody, V domains shown)
VH: EVQLLESGGGLVQPGGSLRLSCAASGFTFSSNYMSWVRQAPGKGLEWVALIWYDGSNKYYADSVKGRFTISRDNSKNTLYLQMNSLRAEDTAVYYCAKDPLFDSWGQGTLVTVSS
VL: B4 VL with S25R, R52D, Q55K, T92A, R96S, V97L
notes: IgG

EC50 [1]: 0.29 nM
EC50 [2]: 1.1 nM
EC50 [3]: 0.9 nM
B10: 001-H10 (antibody, V domains shown)
VH: EVQLLESGGGLVQPGGSLRLSCAASGFTFDDYGMSWVRQAPGKGLEWVSVIYSGGSTYYADSVKGRFTISRDNSKNTLYLQMNSLRAEDTAVYYCARDRSSSWYRDGMDVWGQGTLVTVSS
VL: B8 VL with S23T, H33Y, Y52G, D53N, D54S, L55N, L56R
notes: IgG

EC50 [1]: 0.31 nM
EC50 [2]: 0.79 nM
binding result [4]: no binding
B11: 001-F02 (antibody, V domains shown)
VH: EVQLLESGGGLVQPGGSLRLSCAASGFTFSDYYMSWVRQAPGKGLEWVANINTDGSEKYYLDSVKGRFTISRDNSKNTLYLQMNSLRAEDTAVYYCAREEYGAFDIWGQGTLVTVSS
VL: B12 VL with N31S, A33T, G51D, T53N, N54K, Y92F, S94R, S95G, Y99S, V100I
notes: IgG; In the MDSC assay tested as hIgG1, hIgG2 and N297Q

EC50 [1]: 0.25 nM
EC50 [2]: 27 nM
EC50 [3]: 1 nM
B15: 001-B11 (antibody, V domains shown)
VH: EVQLLESGGGLVQPGGSLRLSCAASGFTFSSYSMNWVRQAPGKGLEWVAVMSYDEYNTYYADSVKGRFTISRDNSKNTLYLQMNSLRAEDTAVYYCAKGFYGDYPLWDYWGQGTLVTVSS
VL: not shown
notes: IgG
